From patent US20210263044A1

Target: Protein G bound to porous resin beads (Pierce Biotechnology, Protein G UltraLink resin) (UniProt P19909)
Test: 100 ug IgG mixed with 10 uL Protein G resin bead suspension; supernatant analysed by SDS-PAGE, band pixels

residual amount of antibody (unbound IgG remaining in the supernatant): 3%
Substance: human immunoglobulin G (IgG) (antibody)
